Literature values in publication PMC3418248 (2012).
pKd: −log10 of the molar value.

Biological target: FtsZ C-terminal 17 amino acids (Bacillus subtilis) (UniProt P17865)
Settings: cited from earlier work

EzrA, sequence (O34894 whole entry): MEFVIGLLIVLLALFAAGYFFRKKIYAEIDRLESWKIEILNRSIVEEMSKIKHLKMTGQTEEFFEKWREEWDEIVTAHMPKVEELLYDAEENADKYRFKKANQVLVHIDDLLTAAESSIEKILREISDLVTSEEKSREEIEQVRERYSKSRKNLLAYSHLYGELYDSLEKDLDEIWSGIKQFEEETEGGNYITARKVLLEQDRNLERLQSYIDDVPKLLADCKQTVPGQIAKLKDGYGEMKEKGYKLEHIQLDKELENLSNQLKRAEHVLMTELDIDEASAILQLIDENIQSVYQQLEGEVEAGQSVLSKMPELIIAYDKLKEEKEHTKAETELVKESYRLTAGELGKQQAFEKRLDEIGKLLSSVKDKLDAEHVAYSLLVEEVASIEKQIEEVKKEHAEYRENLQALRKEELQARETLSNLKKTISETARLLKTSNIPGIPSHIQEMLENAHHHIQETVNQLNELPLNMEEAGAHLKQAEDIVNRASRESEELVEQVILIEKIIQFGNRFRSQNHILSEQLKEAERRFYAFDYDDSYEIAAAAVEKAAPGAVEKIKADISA

Question: With EzrA (from UniProt O34894) as the substance, how does the pKd read?
Answer: Its pKd is 3.99.
